# Results: patent publication US20260317434 (published 2026)
# T1: mouse IL1RAP (mouse, UniProt Q61730)
# T1 chain: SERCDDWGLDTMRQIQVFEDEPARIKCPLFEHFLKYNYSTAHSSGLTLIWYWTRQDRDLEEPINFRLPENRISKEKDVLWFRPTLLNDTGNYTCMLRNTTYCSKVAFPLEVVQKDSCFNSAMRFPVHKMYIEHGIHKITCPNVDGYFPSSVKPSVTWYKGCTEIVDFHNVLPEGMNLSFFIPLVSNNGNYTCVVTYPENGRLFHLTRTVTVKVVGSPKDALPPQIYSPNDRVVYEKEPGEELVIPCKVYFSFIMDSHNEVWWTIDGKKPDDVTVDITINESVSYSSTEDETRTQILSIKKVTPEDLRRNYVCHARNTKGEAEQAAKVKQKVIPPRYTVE
# T2: rat IL1RAP (rat, UniProt Q63621)
# T2 chain: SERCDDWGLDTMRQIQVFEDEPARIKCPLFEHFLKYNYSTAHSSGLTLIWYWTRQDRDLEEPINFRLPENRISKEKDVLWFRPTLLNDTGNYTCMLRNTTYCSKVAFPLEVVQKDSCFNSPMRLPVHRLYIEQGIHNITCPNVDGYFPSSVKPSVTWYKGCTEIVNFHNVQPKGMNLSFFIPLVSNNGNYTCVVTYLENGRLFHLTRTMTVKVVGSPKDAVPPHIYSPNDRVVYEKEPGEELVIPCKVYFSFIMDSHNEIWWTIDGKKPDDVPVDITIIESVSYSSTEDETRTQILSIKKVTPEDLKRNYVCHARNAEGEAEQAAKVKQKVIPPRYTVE
# Tests used:
# [1] = target: human IL1RAP Domain1+2 (aa21-234) (human, UniProt Q9NPH3); test: ELISA
# mouse IL1RAP = target: T1, mouse IL1RAP; test: ELISA
# [2] = target: human IL1RAP ectodomain (aa21-367) (human, UniProt Q9NPH3); test: BLI
# rat IL1RAP = target: T2, rat IL1RAP; test: ELISA
binding result [1],binding result (mouse IL1RAP),Kd [2] [pM],binding result (rat IL1RAP),Binder
no binding,,,,"43F5 (antibody, V domains shown) VH: QSLEESGGRLVTPGTPLTLTCKASGFSLSNYWMSWVRQAPGKGLEWIGFITSSDNTYYASWAKGRFTISKASSTTVGLKMTSPTTEDTATYFCARDISGINSVVLWGQGTLVTVSS VL: DVVMTQTPASVSEPVGGTVTINCQASQSIDSYLSWYQQKPGQPPKFLIYGASNLASGVPSRFKGSRSGTEYTLTISDLECADAATYYCQCTDYSINYIGAFGGGTKVVVE"
no binding,no binding,285,no binding,"3G5 (antibody, V domains shown) VH: EVQLVESGGVLVKPGGSLKLSCAASGFTFSDYAMSWVRQTPEKRLEWVATITDGGSYAYYTDDVKGRFTVSRDNARNNLFLQMSHLRSEDTGIYYCSRDRWPYYFDFWGRGTTLTVSS VL: DIQMTQSPTSLSVSVGETVTITCRISENIYSNLAWYQQKEGKSPQLLVYAATKLADGVPSRFSGSGSGTQYSLKINSLQSEDFGNYYCQHFWTTPRTFGGGTKVEIK"
no binding,no binding,,no binding,"48A5 (antibody, V domains shown) VH: QEQLEESEGGLFKPTETLTLTCTVSGFSLSYDITWVRQAPGNGLEWIGTIDTSSNTYHATWAKSRSTITKNTNLNTVTLKMTSLTAADTATYFCARGGVHAYAYAPAAFDPWGPGTLVTISS VL: APVLTQTPSPVSAAVGGTVTISCQSSQSVYNDAYLAWYQQKPGQPPKLLIYLASTLASGVPSRFSGSGSGTQFTLTISGVQCEDAATYYCQGAYYSNDWYYVFGGGTEVVVK"
